In paper PMC3905896 (Nucleic Acids Research, 2013):

T1: PtxS (assayed together with PtxR at Pgad) (Pseudomonas aeruginosa, UniProt G3XD97)
T1 sequence (G3XD97 1-340): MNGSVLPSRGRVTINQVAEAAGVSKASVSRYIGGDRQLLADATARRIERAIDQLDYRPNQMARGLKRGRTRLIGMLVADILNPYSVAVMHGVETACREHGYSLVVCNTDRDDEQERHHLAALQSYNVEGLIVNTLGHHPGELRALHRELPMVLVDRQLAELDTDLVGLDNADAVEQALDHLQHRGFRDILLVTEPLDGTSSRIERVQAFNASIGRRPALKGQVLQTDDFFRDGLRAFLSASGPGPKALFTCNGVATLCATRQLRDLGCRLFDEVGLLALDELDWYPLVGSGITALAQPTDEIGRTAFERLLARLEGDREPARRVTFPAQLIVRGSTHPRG

T2: PtxR (Pseudomonas aeruginosa, UniProt P72131 1-312)
T2 sequence (looked up): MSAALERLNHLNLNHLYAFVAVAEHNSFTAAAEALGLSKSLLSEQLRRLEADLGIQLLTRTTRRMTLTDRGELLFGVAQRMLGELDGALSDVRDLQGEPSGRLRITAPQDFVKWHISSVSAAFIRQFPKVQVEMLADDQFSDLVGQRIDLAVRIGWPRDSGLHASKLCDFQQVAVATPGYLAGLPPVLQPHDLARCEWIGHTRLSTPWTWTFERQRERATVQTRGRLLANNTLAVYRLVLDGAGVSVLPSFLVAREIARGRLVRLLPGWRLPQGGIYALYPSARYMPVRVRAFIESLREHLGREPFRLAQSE


Experiments:
[1] = molecular target: T1, PtxS (assayed together with PtxR at Pgad); type: biochemical
PtxR = molecular target: T2, PtxR; assay: ITC

Molecule | EC50 [1] [nM] | KD of the first binding event (PtxR) [nM] | KD of the second binding event (PtxR) [nM] | dH of the first binding event (PtxR) [kcal/mol] | dH of the second binding event (PtxR) [kcal/mol]
O=C(O)C(=O)[C@@H](O)[C@H](O)[C@H](O)CO [2-ketogluconate] | 78000 | – | – | – | –
PtxS (natural protein, Pseudomonas aeruginosa, UniProt G3XD97 1-340, looked up) MNGSVLPSRGRVTINQVAEAAGVSKASVSRYIGGDRQLLADATARRIERAIDQLDYRPNQMARGLKRGRTRLIGMLVADILNPYSVAVMHGVETACREHGYSLVVCNTDRDDEQERHHLAALQSYNVEGLIVNTLGHHPGELRALHRELPMVLVDRQLAELDTDLVGLDNADAVEQALDHLQHRGFRDILLVTEPLDGTSSRIERVQAFNASIGRRPALKGQVLQTDDFFRDGLRAFLSASGPGPKALFTCNGVATLCATRQLRDLGCRLFDEVGLLALDELDWYPLVGSGITALAQPTDEIGRTAFERLLARLEGDREPARRVTFPAQLIVRGSTHPRG | – | 12 ± 2 | 99 ± 8 | -27.3 ± 0.7 | -13 ± 0.8
